Laboratory results published in the supplement of paper PMC7877785.
± gives the uncertainty stated by the source.

Assay: self-splicing fitness, log relative to wild type (ln ratio); higher = more splicing; Tetrahymena group I intron in knt gene, E. coli kanamycin selection, DiMSum; sequences stand for … in CUCUCU…GGAGGGAAAAGUUAUCAGGCAUGCACCUGGUAGCUAGUCUUUAAACCAAUAGAUUGCAUCGGUUUAAAAGGCAAGACCGUCAAAUUGCGGGAAAGGGGUCAACAGCCGUUCAGUACCAAGUCUCAGGGGAAACUUUGAGAUGGCCUUGCAAAGGGUAUGGUAAUAAGCUGACGGACAUGGUCCUAACCACGCAGCCAAGUCCUAAGUCAACAGAUCUUCUGUUGAUAUGGAUGCAGUUCACAGACUAAAUGUCGGUCGGGGAAGAUGUAUUCUUCUCAUAAGAUAUAGUCGGACCUCUCCUUAAUGGGAGCUAGCGGAUGAAGUGAUGCAACACUGGAGCCGCUGGGAACUAAUUUGUAUGCGAAAGUAUAUUGAUUAGUUUUGGAGUACUCGUGGUCG
Outline: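 Colonies from six replicate transformations of E. coli BL21(DE3) were pooled and amplicon-sequenced on an Illumina HiSeq 2500. The library placed an intron with all eight P1ex-region nucleotides randomised inside the knt kanamycin-resistance gene on pET-22b(+), and cells grew overnight at 37°C or 30°C on LB agar with or without 25 μg/mL kanamycin (plus 100 μg/mL carbenicillin, 50 μM IPTG, 0.2% rhamnose). Fitness is the DiMSum error-weighted combination of wild-type-normalised replicate fold changes, kanamycin versus none.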

Sequence	self-splicing fitness (ln) (30 °C)	self-splicing fitness (ln) (37 °C)
AAAAAGCAAUAUUACGAACA	-0.675 ± 0.092	-0.407 ± 0.11
AAAAAGCAAUAUUACGACCU	0.273 ± 0.072	0.617 ± 0.089
AAAAAGCAAUAUUACGACGU	0.102 ± 0.054	0.768 ± 0.067
AAAAAGCAAUAUUACGAGUG	-1.35 ± 0.088	-1.18 ± 0.09
AAAAAGCAAUAUUACGAUAU	-0.534 ± 0.061	-0.545 ± 0.079
AAAAAGCAAUAUUACGCAUU	-2.5 ± 0.1	-1.8 ± 0.11
AAAAAGCAAUAUUACGCCAA	-2.26 ± 0.17	-1.33 ± 0.12
AAAAAGCAAUAUUACGCCGU	-0.957 ± 0.064	-0.392 ± 0.072
AAAAAGCAAUAUUACGCGGC	-3.53 ± 0.26	-2.15 ± 0.27
AAAAAGCAAUAUUACGCUAG	-1.41 ± 0.086	-0.619 ± 0.085
AAAAAGCAAUAUUACGGAGU	-2.15 ± 0.13	-1.63 ± 0.13
AAAAAGCAAUAUUACGGCCA	-0.43 ± 0.11	-0.0922 ± 0.15
AAAAAGCAAUAUUACGGUAC	-3.24 ± 0.11	-1.76 ± 0.094
AAAAAGCAAUAUUACGGUUG	-2.28 ± 0.1	-1.58 ± 0.13
AAAAAGCAAUAUUACGUAAG	-1.08 ± 0.061	-0.0629 ± 0.081
AAAAAGCAAUAUUACGUCCC	-0.842 ± 0.15	0.362 ± 0.23
AAAAAGCAAUAUUACGUCGC	-2.7 ± 0.26	-1.34 ± 0.17
AAAAAGCAAUAUUACGUGCA	-0.742 ± 0.056	-0.201 ± 0.072
AAAAAGCAAUAUUACGUUAU	-2.13 ± 0.071	-1.55 ± 0.1
AAAAAGCAAUAUUACGUUCU	-0.294 ± 0.066	-0.0468 ± 0.083
AAAAAGCAAUAUUACGUUUG	-2.65 ± 0.097	-2.01 ± 0.12
AAACAGCAAUAUUACGACCA	-0.58 ± 0.061	-0.0342 ± 0.082
AAACAGCAAUAUUACGACUG	-1.64 ± 0.064	-0.795 ± 0.071
AAACAGCAAUAUUACGAUGG	-3.16 ± 0.15	-1.27 ± 0.16
AAACAGCAAUAUUACGCAUU	-2.68 ± 0.094	-1.08 ± 0.094
AAACAGCAAUAUUACGCCUA	-1.13 ± 0.086	-0.0496 ± 0.075

Sequence	self-splicing fitness (ln) (30 °C)	self-splicing fitness (ln) (37 °C)
AAACAGCAAUAUUACGCCUC	-2.55 ± 0.15	-1.49 ± 0.15
AAACAGCAAUAUUACGCCUG	-1.99 ± 0.096	-0.538 ± 0.1
AAACAGCAAUAUUACGCGGG	-2.69 ± 0.097	-0.988 ± 0.073
AAACAGCAAUAUUACGCUAA	-1.6 ± 0.084	-1.58 ± 0.1
AAACAGCAAUAUUACGGACC	-1.94 ± 0.078	-1.08 ± 0.095
AAACAGCAAUAUUACGGCAA	-0.944 ± 0.096	-0.612 ± 0.11
AAACAGCAAUAUUACGGCUC	-0.311 ± 0.068	0.201 ± 0.095
AAACAGCAAUAUUACGGGAU	-2.65 ± 0.1	-1.69 ± 0.087
AAACAGCAAUAUUACGGGGA	-2.79 ± 0.1	-1.63 ± 0.081
AAACAGCAAUAUUACGUAGC	-4.24 ± 0.16	-2.98 ± 0.18
AAACAGCAAUAUUACGUAGG	-1.85 ± 0.057	-1.34 ± 0.08
AAACAGCAAUAUUACGUCCC	-1.44 ± 0.17	0.29 ± 0.17
AAACAGCAAUAUUACGUCGC	-3.37 ± 0.21	-2.92 ± 0.23
AAACAGCAAUAUUACGUCUU	-0.362 ± 0.054	0.322 ± 0.071
AAACAGCAAUAUUACGUGCU	-3.52 ± 0.2	-1.91 ± 0.14
AAACAGCAAUAUUACGUGGU	-4.06 ± 0.14	-2.31 ± 0.15
AAAGAGCAAUAUUACGAAAG	-3.63 ± 0.24	-3.18 ± 0.24
AAAGAGCAAUAUUACGAACG	-3.87 ± 0.21	-1.74 ± 0.13
AAAGAGCAAUAUUACGAAGU	-3.28 ± 0.38	-2.05 ± 0.32
AAAGAGCAAUAUUACGAGAC	-3.51 ± 0.35	-2.11 ± 0.27
AAAGAGCAAUAUUACGCACA	–	-0.789 ± 0.28
AAAGAGCAAUAUUACGCAGG	-3.47 ± 0.24	-3.45 ± 0.35
AAAGAGCAAUAUUACGCAUG	-2.55 ± 0.18	-1.7 ± 0.098
AAAGAGCAAUAUUACGCCGA	-1.81 ± 0.29	-2.33 ± 0.34
AAAGAGCAAUAUUACGCGAG	-1.87 ± 0.12	-1.58 ± 0.13
AAAGAGCAAUAUUACGCGCG	-2.69 ± 0.17	-1.65 ± 0.17

Sequence	self-splicing fitness (ln) (30 °C)	self-splicing fitness (ln) (37 °C)
AAAGAGCAAUAUUACGCUGG	-4.07 ± 0.32	-1.89 ± 0.31
AAAGAGCAAUAUUACGGAAG	-3.76 ± 0.21	-2.62 ± 0.33
AAAGAGCAAUAUUACGGAGA	-2.99 ± 0.22	-1.98 ± 0.21
AAAGAGCAAUAUUACGGCCG	-1.78 ± 0.18	-0.0792 ± 0.23
AAAGAGCAAUAUUACGGGAC	-3.56 ± 0.38	-1.96 ± 0.22
AAAGAGCAAUAUUACGGGAU	-4.18 ± 0.23	-2.09 ± 0.17
AAAGAGCAAUAUUACGGUCG	-2.47 ± 0.16	-1.58 ± 0.15
AAAGAGCAAUAUUACGGUGA	-3.87 ± 0.22	-1.93 ± 0.14
AAAGAGCAAUAUUACGUACG	-3.6 ± 0.44	-1.9 ± 0.41
AAAGAGCAAUAUUACGUAGC	-4.35 ± 0.27	-2.45 ± 0.24
AAAGAGCAAUAUUACGUUUC	-3.41 ± 0.18	-2.55 ± 0.24
AAAUAGCAAUAUUACGAGCA	-1.4 ± 0.11	-0.127 ± 0.11
AAAUAGCAAUAUUACGAGCG	-1.75 ± 0.17	-0.208 ± 0.15
AAAUAGCAAUAUUACGAGUU	-1.22 ± 0.11	-0.896 ± 0.11
AAAUAGCAAUAUUACGCACA	-0.634 ± 0.097	-0.2 ± 0.14
AAAUAGCAAUAUUACGCCAU	-3.75 ± 0.25	-2.36 ± 0.24
AAAUAGCAAUAUUACGCCUC	-1.6 ± 0.14	-0.0982 ± 0.17
AAAUAGCAAUAUUACGCGAG	-1.93 ± 0.17	-0.639 ± 0.14
AAAUAGCAAUAUUACGCUUG	-1.77 ± 0.087	-0.8 ± 0.12
AAAUAGCAAUAUUACGGCAC	-0.691 ± 0.1	0.0337 ± 0.12
AAAUAGCAAUAUUACGGCAG	-1.67 ± 0.15	-0.465 ± 0.16
AAAUAGCAAUAUUACGGCGA	-0.48 ± 0.11	-0.0146 ± 0.12
AAAUAGCAAUAUUACGGCGU	-0.263 ± 0.071	-0.0261 ± 0.095
AAAUAGCAAUAUUACGGCUU	0.203 ± 0.1	0.139 ± 0.13
